Reference: patent US20230416360A1

Assays:
[1] = biological target: human CD22-ECD-His (human) (UniProt P20273); test: ELISA, coated hCD22-ECD-His, antibody 0.10 nM
[2] = biological target: human CD22-ECD-His (human) (UniProt P20273); test: ELISA, coated hCD22-ECD-His, antibody 100 nM
[3] = biological target: cynomolgus monkey CD22 on peripheral blood B cells (cynomolgus monkey (Macaca fascicularis)); test: FACS, cynomolgus PBMC, CD20+ B cells, antibody 100 nM
[4] = biological target: human CD22-ECD-His (human) (UniProt P20273); test: ELISA, coated hCD22-ECD-His, antibody 10 nM
[5] = biological target: cynomolgus monkey CD22 on peripheral blood B cells (cynomolgus monkey (Macaca fascicularis)); test: FACS, cynomolgus PBMC, CD20+ B cells, antibody 10 nM
[6] = biological target: human CD22 (full length, on cells) (human) (UniProt P20273); test: FACS, CHO-K1-human CD22 2C4
[7] = biological target: human CD22-ECD-His (human) (UniProt P20273); test: ELISA, coated hCD22-ECD-His, antibody 0.00001 nM
[8] = biological target: human CD22 (full length, on cells) (human) (UniProt P20273); test: FACS, CHO-K1-human CD22 1D9
[9] = biological target: cynomolgus monkey CD22 on peripheral blood B cells (cynomolgus monkey (Macaca fascicularis)); test: FACS, cynomolgus PBMC, CD20+ B cells, antibody 1 nM
[10] = biological target: human CD22 (full length, on cells) (human) (UniProt P20273); test: FACS, CHO-K1-human CD22 2C4 cells
[11] = biological target: human CD22-ECD-His (human) (UniProt P20273); test: ELISA, coated hCD22-ECD-His, antibody 0.01 nM
[12] = biological target: human CD22-ECD-His (human) (UniProt P20273); test: ELISA, coated hCD22-ECD-His, antibody 0.0001 nM
[13] = biological target: human CD22 (full length, on cells) (human) (UniProt P20273); test: FACS, CHO-K1-human CD22 1G5
[14] = biological target: human CD22 (full length, on cells) (human) (UniProt P20273); test: FACS, Raji cells
[15] = biological target: human CD22-ECD-His (human) (UniProt P20273); test: ELISA, coated hCD22-ECD-His, antibody 0.001 nM

OD450 [1]: 0.06
OD450 [2]: 0.15
Proportion of VHH-Fc antibody positive cells to B cells (%) [3]: 3%
OD450 [4]: 0.08
Proportion of VHH-Fc antibody positive cells to B cells (%) [5]: 0%
Cell mean fluorescence intensity [6]: 66
OD450 [7]: 0.05
Cell mean fluorescence intensity [8]: 66
Proportion of VHH-Fc antibody positive cells to B cells (%) [9]: 0%
Max MFI [10]: 340
OD450 [11]: 0.06
OD450 [12]: 0.06
Cell mean fluorescence intensity [13]: 66
Cell mean fluorescence density [14]: 158
Max MFI [14]: 374
OD450 [15]: 0.06
Substance: anti-hel-hIgG1 (negative control antibody against chicken egg lysozyme)
